B1: RNA-binding protein Raly (Homo sapiens), Q9UKM9 (parent)
chain: MSLKLQASNVTNKNDPKSINSRVFIGNLNTALVKKSDVETIFSKYGRVAGCSVHKGYAFVQYSNERHARAAVLGENGRVLAGQTLDINMAGEPKPDRPKGLKRAASAIYSGYIFDYDYYRDDFYDRLFDYRGRLSPVPVPRAVPVKRPRVTVPLVRRVKTNVPVKLFARSTAVTTSSAKIKLKSSELQAIKTELTQIKSNIDALLSRLEQIAAEQKANPDGKKKGDGGGAGGGGGGGGSGGGGSGGGGGGGSSRPPAPQENTTSEAGLPQGEARTRDDGDEEGLLTHSEEELEHSQDTDADDGALQ
B2: RNA-binding protein FUS (Homo sapiens), P35637 (parent)
chain: MASNDYTQQATQSYGAYPTQPGQGYSQQSSQPYGQQSYSGYSQSTDTSGYGQSSYSSYGQSQNTGYGTQSTPQGYGSTGGYGSSQSSQSSYGQQSSYPGYGQQPAPSSTSGSYGSSSQSSSYGQPQSGSYSQQPSYGGQQQSYGQQQSYNPPQGYGQQNQYNSSSGGGGGGGGGGNYGQDQSSMSSGGGSGGGYGNQDQSGGGGSGGYGQQDRGGRGRGGSGGGGGGGGGGYNRSSGGYEPRGRGGGRGGRGGMGGSDRGGFNKFGGPRDQGSRHDSEQDNSDNNTIFVQGLGENVTIESVADYFKQIGIIKTNKKTGQPMINLYTDRETGKLKGEATVSFDDPPSAKAAIDWFDGKEFSGNPIKVSFATRRADFNRGGGNGRGGRGRGGPMGRGGYGGGGSGGGGRGGFPSGGGGGGGQQRAGDWKCPNPTCENMNFSWRNECNQCKAPKPDGPGGGPGGSHMGGNYGDDRRGGRGGYDRGGYRGRGGDRGGFRGGRGGGDRGGFGPGKMDSRGEHRQDRRERPY

Legend:
fus_human FUS, P35637 = variants of: B1; conditions: with fus_human FUS
raly_mouse Raly, Q64012 = variants of: B2; conditions: with raly_mouse Raly
Sequence of raly_mouse Raly, Q64012 (Q64012 whole entry): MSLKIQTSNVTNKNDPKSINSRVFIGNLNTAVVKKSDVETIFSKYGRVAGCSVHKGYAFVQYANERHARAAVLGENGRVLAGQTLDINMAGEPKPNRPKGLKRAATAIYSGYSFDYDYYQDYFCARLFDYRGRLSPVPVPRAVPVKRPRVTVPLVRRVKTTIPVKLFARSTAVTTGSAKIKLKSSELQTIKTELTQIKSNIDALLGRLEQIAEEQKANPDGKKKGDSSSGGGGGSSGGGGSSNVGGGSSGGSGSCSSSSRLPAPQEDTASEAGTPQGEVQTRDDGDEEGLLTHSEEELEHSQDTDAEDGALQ

raly_human RALY, Q9UKM9 = variants of: B2; conditions: with raly_human RALY

P148A;R149A
effect of a mutation on the interaction (fus_human FUS, P35637): with no effect

P525L
effect of a mutation on the interaction (raly_mouse Raly, Q64012): with no effect | effect of a mutation on the interaction (raly_human RALY, Q9UKM9): with no effect

R521C
effect of a mutation on the interaction (raly_mouse Raly, Q64012): with no effect | effect of a mutation on the interaction (raly_human RALY, Q9UKM9): with no effect

R521H
effect of a mutation on the interaction (raly_mouse Raly, Q64012): with no effect | effect of a mutation on the interaction (raly_human RALY, Q9UKM9): with no effect

From IntAct's records for PubMed 30354839
